Measurements: US20210147513A1 (published 2021)

T1: S protein of live MERS-CoV EMC/2012 (MERS-CoV)
T1 chain: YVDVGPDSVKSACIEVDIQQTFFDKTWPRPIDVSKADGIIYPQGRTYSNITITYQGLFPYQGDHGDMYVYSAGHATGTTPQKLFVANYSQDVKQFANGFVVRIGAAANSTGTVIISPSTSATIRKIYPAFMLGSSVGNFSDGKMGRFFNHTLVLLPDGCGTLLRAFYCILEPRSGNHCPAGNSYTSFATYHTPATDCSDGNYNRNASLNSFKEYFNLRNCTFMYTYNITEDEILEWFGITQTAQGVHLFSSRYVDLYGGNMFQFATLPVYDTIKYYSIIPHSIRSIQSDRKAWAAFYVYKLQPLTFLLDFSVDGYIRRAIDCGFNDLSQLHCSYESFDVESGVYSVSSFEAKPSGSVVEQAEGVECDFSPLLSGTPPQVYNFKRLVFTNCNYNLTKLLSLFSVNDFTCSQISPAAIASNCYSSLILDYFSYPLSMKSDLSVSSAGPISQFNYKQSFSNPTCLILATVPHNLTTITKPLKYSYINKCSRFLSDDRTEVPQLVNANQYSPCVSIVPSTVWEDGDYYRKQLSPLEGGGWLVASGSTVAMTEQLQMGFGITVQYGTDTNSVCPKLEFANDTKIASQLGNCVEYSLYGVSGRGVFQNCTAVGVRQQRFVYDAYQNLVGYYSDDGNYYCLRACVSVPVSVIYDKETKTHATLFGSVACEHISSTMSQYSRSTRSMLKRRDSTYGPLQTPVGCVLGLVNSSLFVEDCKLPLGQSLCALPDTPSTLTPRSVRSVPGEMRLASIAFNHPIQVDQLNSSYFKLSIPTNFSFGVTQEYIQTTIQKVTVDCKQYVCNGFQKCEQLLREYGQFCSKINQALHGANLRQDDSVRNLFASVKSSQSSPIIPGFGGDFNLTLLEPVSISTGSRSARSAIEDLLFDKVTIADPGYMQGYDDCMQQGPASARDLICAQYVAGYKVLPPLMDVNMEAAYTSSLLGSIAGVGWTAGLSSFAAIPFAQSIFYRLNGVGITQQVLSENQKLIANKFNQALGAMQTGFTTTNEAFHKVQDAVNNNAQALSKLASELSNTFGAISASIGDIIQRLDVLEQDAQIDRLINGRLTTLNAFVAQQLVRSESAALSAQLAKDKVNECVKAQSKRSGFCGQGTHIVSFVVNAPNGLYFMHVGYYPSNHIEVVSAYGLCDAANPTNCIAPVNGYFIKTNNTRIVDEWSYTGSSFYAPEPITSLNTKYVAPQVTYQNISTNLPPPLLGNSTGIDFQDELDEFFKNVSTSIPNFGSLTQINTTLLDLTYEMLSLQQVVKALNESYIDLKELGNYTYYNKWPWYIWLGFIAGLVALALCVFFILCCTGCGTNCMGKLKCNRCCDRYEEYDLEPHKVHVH


Legend:
[1] = molecular target: T1, S protein of live MERS-CoV EMC/2012; assay: cell-based or functional assay
[2] = molecular target: S protein of live MERS-CoV EMC/2012 (MERS-CoV); assay: cell-based or functional assay; remark: listed apart in the source

Row | Binder | IC50 (µg/ml), PRNT50 live virus, wt. [1] | IC50 (µg/ml), PRNT50 live virus, wt. [2]
1 | 3B12 scFvFc (scFv, V domains shown) VH: QVQLVQSGAEVKKPGSSVKVSCKASGGTFSSYAISWVRQAPGQGLEWMGGIIPIFGTANYAQKFQGRVTITADKSTSTAYMELSSLRSEDTAVYYCARASYCSTTSCASGAFDIWGQGTLVTVSS VL: not shown | 1.25 µg/mL | 
2 | 3B11 IgG1 (antibody, V domains shown) VH: QVQLVQSGAEVKKPGSSVKVSCKASGGTFSSYAISWVRQAPGQGLEWMGGIIPIFGTANYAQKFQGRVTITADKSTSTAYMELSSLRSEDTAVYYCARVGYCSSTSCHIGAFDIWGQGTTVTVSS VL: ETTLTQSPGTLSLSPGERATLSCRASQSVSSSIAWYQQKPGQAPRLLMFDSSTRATGIPDRFSGSGSGTDFTLNISSLEPEDFAVYYCQQYSSSPYTFGQGTKLEIK |  | 3.5 µg/mL
3 | 1F8 IgG1 (antibody, V domains shown) VH: EVQLVQSGAEVKEPGSSVKVSCKASGGTFGSYAINWVRQAPGQRLEWMGWIDAANGNTKYSQKFQGRVTITGDTSASTAYMELSSLRSEDTAVYYCARDRWMTTRAFDIWGQGTMVTVSS VL: QPVLTQPPSASGTPGQRVTISCSGSSSNIGSNYVFWYQQLPGMAPKLLISRNNQRPSGVPDRFSGSKSGTSASLAISGPQSEDEADYYCAAWDDSLRGPVFGGGTRVTVL |  | 4.05 µg/mL
4 | 3A1 scFvFc (scFv, V domains shown) VH: QVQLVQSGAEVKKPGSSVKVSCKASGGTFSSYAVSWVRQAPGQGLEWVGRIIPIFGKANYAQKFQGRVTITADKSTSTAYMELSSLRPEDTAVYYCARDQGISANFKDAFDIWGQGTTVTVSS VL: ETTLTQSPATLSVSPGERATLSCRASESVGSNLAWYQQKPGQAPSLLIYGASTRATGIPDRFSGSGSGTDFTLTISSLQSEDFAAYYCQQYNNWPLTFGPGTKVEIK |  | 1.46 µg/mL
5 | 3A1 IgG1 (antibody, V domains shown) VH: QVQLVQSGAEVKKPGSSVKVSCKASGGTFSSYAVSWVRQAPGQGLEWVGRIIPIFGKANYAQKFQGRVTITADKSTSTAYMELSSLRPEDTAVYYCARDQGISANFKDAFDIWGQGTTVTVSS VL: ETTLTQSPATLSVSPGERATLSCRASESVGSNLAWYQQKPGQAPSLLIYGASTRATGIPDRFSGSGSGTDFTLTISSLQSEDFAAYYCQQYNNWPLTFGPGTKVEIK |  | 4.5 µg/mL
